Source: patent US20110118131A1 (published 2011)
Where a chain is given by its changes, count along the chain named. Names may count otherwise.

T1: Ep-CAM (UniProt P16422 24-265, limits assumed)
T1 construct: Antigen of the Biacore analysis of ING-1 variants
T1 sequence (looked up): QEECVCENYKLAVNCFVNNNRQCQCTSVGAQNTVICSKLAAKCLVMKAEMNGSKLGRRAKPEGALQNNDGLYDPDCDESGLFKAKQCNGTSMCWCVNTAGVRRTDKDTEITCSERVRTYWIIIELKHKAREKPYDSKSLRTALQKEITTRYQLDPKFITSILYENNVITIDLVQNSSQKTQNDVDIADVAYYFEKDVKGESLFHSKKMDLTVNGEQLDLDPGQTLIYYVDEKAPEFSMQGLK

B1: XPA23 heavy chain V50T (Fab, V domains shown)
VH: EVQLLESGGGLVQPGGSLRLSCAASGFTFSKYFMFWVRQAPGKGLEWVSTISPSGGMTRYADSVKGRFTISRDNSKNTLYLQMNSLRAEDTAVYYCARVGYGGNSDYWGQGTLVTVSS
VL: DIQMTQSPSSVSASVGDRLTIICRASQDINRWLAWYQQTPGNAPKLLIHSATSLQSGVPSRFSGSGSGTDFTLTINSLQPEDFATYYCQQADSFPLTFGGGTKVEIK
notes: Fab, periplasmic extract; also called C5A V50T
B2: XPA23 heavy chain V99A (Fab, V domains shown)
VH: B1 VH with T50V, V99A
VL: B1 VL
notes: Fab, periplasmic extract; also called C5A V99A
B3: XPA23 heavy chain V99T (Fab, V domains shown)
VH: B1 VH with T50V, V99T
VL: B1 VL
notes: Fab, periplasmic extract; also called C5A V99T
B4: XPA23 heavy chain Y32G (Fab, V domains shown)
VH: B1 VH with Y32G, T50V
VL: B1 VL
notes: Fab, periplasmic extract; also called C5A Y32G
B5: XPA23 heavy chain Y32L (Fab, V domains shown)
VH: B1 VH with Y32L, T50V
VL: B1 VL
notes: Fab, periplasmic extract; also called C5A Y32L
B6: XPA23 heavy chain Y32P (Fab, V domains shown)
VH: B1 VH with Y32P, T50V
VL: B1 VL
notes: Fab, periplasmic extract; also called C5A Y32P
B7: XPA23 heavy chain Y32T (Fab, V domains shown)
VH: B1 VH with Y32T, T50V
VL: B1 VL
notes: Fab, periplasmic extract; also called C5A Y32T
B8: XPA23 heavy chain Y32V (Fab, V domains shown)
VH: B1 VH with Y32V, T50V
VL: B1 VL
notes: Fab, periplasmic extract; also called C5A Y32V
B9: XPA23 heavy chain Y101A (Fab, V domains shown)
VH: B1 VH with T50V, Y101A
VL: B1 VL
notes: Fab, periplasmic extract; also called C5A Y101A
B10: XPA23 heavy chain Y101I (Fab, V domains shown)
VH: B1 VH with T50V, Y101I
VL: B1 VL
notes: Fab, periplasmic extract; also called C5A Y101I
B11: XPA23 heavy chain Y101L (Fab, V domains shown)
VH: B1 VH with T50V, Y101L
VL: B1 VL
notes: Fab, periplasmic extract; also called C5A Y101L
B12: XPA23 heavy chain Y101P (Fab, V domains shown)
VH: B1 VH with T50V, Y101P
VL: B1 VL
notes: Fab, periplasmic extract; also called C5A Y101P
B13: XPA23 heavy chain Y101T (Fab, V domains shown)
VH: B1 VH with T50V, Y101T
VL: B1 VL
notes: Fab, periplasmic extract; also called C5A Y101T
B14: XPA23 heavy chain Y101V (Fab, V domains shown)
VH: B1 VH with T50V, Y101V
VL: B1 VL
notes: Fab, periplasmic extract; also called C5A Y101V
B15: XPA23 heavy chain Y107A (Fab, V domains shown)
VH: B1 VH with T50V, Y107A
VL: B1 VL
notes: Fab, periplasmic extract; also called C5A Y107A
B16: XPA23 heavy chain Y107G (Fab, V domains shown)
VH: B1 VH with T50V, Y107G
VL: B1 VL
notes: Fab, periplasmic extract; also called C5A Y107G
B17: XPA23 heavy chain Y107I (Fab, V domains shown)
VH: B1 VH with T50V, Y107I
VL: B1 VL
notes: Fab, periplasmic extract; also called C5A Y107I
B18: XPA23 heavy chain Y107L (Fab, V domains shown)
VH: B1 VH with T50V, Y107L
VL: B1 VL
notes: Fab, periplasmic extract; also called C5A Y107L
B19: XPA23 heavy chain Y107P (Fab, V domains shown)
VH: B1 VH with T50V, Y107P
VL: B1 VL
notes: Fab, periplasmic extract; also called C5A Y107P
B20: XPA23 heavy chain Y107T (Fab, V domains shown)
VH: B1 VH with T50V, Y107T
VL: B1 VL
notes: Fab, periplasmic extract; also called C5A Y107T
B21: XPA23 heavy chain Y107V (Fab, V domains shown)
VH: B1 VH with T50V, Y107V
VL: B1 VL
notes: Fab, periplasmic extract; also called C5A Y107V
B22: ING-1 heavy chain D104F (Fab, V domains shown)
VH: QIQLVQSGPELKKPGETVKISCKASGYTFTKYGMNWVKQAPGKGLKWMGWINTYTEEPTYGDDFKGRFAFSLETSASTANLQINNLKSEDTATYFCARFGSAVFYWGQGTSVTVSS
VL: DIVMTQAAFSNPVTLGTSGSISCRSSKSLLHSNGITYLYWYLQKPGQSPQLLIYQMSNLASGVPDRFSSSGSGTDFTLRISRVEAEDVGVYYCAQNLELPRTFGGGTKLEMKR
B23: ING-1 heavy chain D104H (Fab, V domains shown)
VH: B22 VH with F104H
VL: B22 VL
B24: ING-1 heavy chain D104K (Fab, V domains shown)
VH: B22 VH with F104K
VL: B22 VL
B25: ING-1 heavy chain D104Q (Fab, V domains shown)
VH: B22 VH with F104Q
VL: B22 VL
B26: ING-1 heavy chain D104R (Fab, V domains shown)
VH: B22 VH with F104R
VL: B22 VL
B27: ING-1 heavy chain D104W (Fab, V domains shown)
VH: B22 VH with F104W
VL: B22 VL
B28: ING-1 heavy chain D104Y (Fab, V domains shown)
VH: B22 VH with F104Y
VL: B22 VL
B29: ING-1 heavy chain E57Q (Fab, V domains shown)
VH: B22 VH with E57Q, F104D
VL: B22 VL
B30: ING-1 heavy chain G33D (Fab, V domains shown)
VH: B22 VH with G33D, F104D
VL: B22 VL
B31: ING-1 heavy chain G33E (Fab, V domains shown)
VH: B22 VH with G33E, F104D
VL: B22 VL

Experiments:
IL-1β = biological target: T2, IL-1β (UniProt P01584 117-269); experiment: Biacore, Fab periplasmic extract
T2 construct: Antigen of XPA23

Ep-CAM = biological target: T1, Ep-CAM; experiment: Biacore, Fab periplasmic extract

Row | Binder | fold difference in affinity against the original (IL-1β) [fold] | binding result (Ep-CAM)
1 | B1 | 0.03 | 
2 | B2 | 0.03 | 
3 | B3 | 0.1 | 
4 | B4 | 1 | 
5 | B5 | 0.75 | 
6 | B6 | 0.68 | 
7 | B7 | 0.8 | 
8 | B8 | 1.07 | 
9 | B9 | 0.04 | 
10 | B10 | 0.83 | 
11 | B11 | 1.91 | 
12 | B12 | 0.04 | 
13 | B13 | 0.06 | 
14 | B14 | 0.09 | 
15 | B15 | 0.83 | 
16 | B16 | 0.1 | 

Row | Binder | fold difference in affinity against the original (IL-1β) [fold] | binding result (Ep-CAM)
17 | B17 | 0.96 | 
18 | B18 | 0.86 | 
19 | B19 | 0.04 | 
20 | B20 | 0.83 | 
21 | B21 | 0.93 | 
22 | B22 |  | no binding
23 | B23 |  | no binding
24 | B24 |  | no binding
25 | B25 |  | no binding
26 | B26 |  | no binding
27 | B27 |  | no binding
28 | B28 |  | no binding
29 | B29 |  | no binding
30 | B30 |  | no binding
31 | B31 |  | no binding
